Molecular target: T1, LAG-3 protein as used in the Biacore analysis (partner not given) (UniProt P18627 23-434, limits assumed)
T1 sequence (looked up): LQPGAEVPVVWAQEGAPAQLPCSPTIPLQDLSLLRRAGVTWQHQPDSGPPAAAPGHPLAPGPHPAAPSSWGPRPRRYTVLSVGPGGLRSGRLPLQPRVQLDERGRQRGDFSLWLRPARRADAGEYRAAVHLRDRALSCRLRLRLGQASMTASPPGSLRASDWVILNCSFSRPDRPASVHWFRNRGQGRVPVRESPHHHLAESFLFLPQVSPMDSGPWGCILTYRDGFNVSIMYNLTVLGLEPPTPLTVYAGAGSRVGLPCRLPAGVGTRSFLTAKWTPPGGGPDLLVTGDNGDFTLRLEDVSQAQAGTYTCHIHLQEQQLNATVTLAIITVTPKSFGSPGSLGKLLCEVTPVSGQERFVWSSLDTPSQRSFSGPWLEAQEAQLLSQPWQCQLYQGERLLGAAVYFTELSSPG
Assay: Biacore (SPR)

Binder	Kd [nM]	koff [s⁻¹]	kon [M⁻¹ s⁻¹]
A9H12 (580.1E MM H12), murine IgG2a anti-human LAG-3 monoclonal antibody (antibody, V domains shown, Murine IgG2a from hybridoma; also called A9H12 LAG-3 mAb; hybridoma CNCM I-3755) VH: QVQLKESGPGLVAPSQSLSITCTVSGFSLTAYGVNWVRQPPGKGLEWLGMIWDDGSTDYNSALKSRLSISKDNSKSQVFLKMNSLQTDDTARYYCAREGDVAFDYWGQGTTLTVSS VL: not shown	0.829	0.00143	1.72e+06
IMP731 (chimeric A9H12 with human IgG1 Fc region) (antibody, V domains shown, also called ImmuTune IMP731; IMP371 [sic]) VH: QVQLKESGPGLVAPSQSLSITCTVSGFSLTAYGVNWVRQPPGKGLEWLGMIWDDGSTDYNSALKSRLSISKDNSKSQVFLKMNSLQTDDTARYYCAREGDVAFDYWGQGTTLTVSS VL: not shown	0.551	0.00112	2.03e+06

Source: patent publication US20110070238A1 (published 2011)
